{
  "source": "patent US20220323599A1",
  "about": "“ANTI-BCMA ANTIBODY CONJUGATE, COMPOSITIONS COMPRISING THE SAME, AND METHODS OF MAKING AND USING THE SAME” (CELGENE CORPORATION, priority 2019, published 2022)",
  "key": {"[1]": {"biological_target": "human BCMA on cells (endogenous on multiple myeloma cell lines; stably transfected 293T-hBCMA) (human) (UniProt Q02223)", "sequence (Q02223 whole entry)": "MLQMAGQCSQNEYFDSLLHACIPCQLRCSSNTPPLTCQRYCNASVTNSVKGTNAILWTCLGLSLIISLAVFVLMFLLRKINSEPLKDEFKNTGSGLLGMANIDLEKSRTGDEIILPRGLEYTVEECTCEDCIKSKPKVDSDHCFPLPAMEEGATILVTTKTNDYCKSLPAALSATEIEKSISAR", "assay": "flow cytometry, ARP-1 cells"}, "[2]": {"biological_target": "human BCMA on cells (endogenous on multiple myeloma cell lines; stably transfected 293T-hBCMA) (human) (UniProt Q02223)", "assay": "flow cytometry, 293T-hBCMA cells"}, "[3]": {"biological_target": "human BCMA on cells (endogenous on multiple myeloma cell lines; stably transfected 293T-hBCMA) (human) (UniProt Q02223)", "assay": "cell-based or functional assay"}, "[4]": {"biological_target": "Recombinant human BCMA ECD protein (Acro Biosystems) (human) (UniProt Q02223)", "sequence (Q02223 1-54 limits assumed)": "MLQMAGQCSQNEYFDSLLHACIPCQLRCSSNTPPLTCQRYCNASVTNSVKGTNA", "assay": "competition ELISA on coated human BCMA ECD, competitor BAFF at 1 ng/ml, Experiment No. 1"}, "[5]": {"biological_target": "cynomolgus BCMA on stably transfected 293T cells (cynomolgus monkey)", "sequence (Q02223 other isoform, or with tags, fused parts or gaps)": "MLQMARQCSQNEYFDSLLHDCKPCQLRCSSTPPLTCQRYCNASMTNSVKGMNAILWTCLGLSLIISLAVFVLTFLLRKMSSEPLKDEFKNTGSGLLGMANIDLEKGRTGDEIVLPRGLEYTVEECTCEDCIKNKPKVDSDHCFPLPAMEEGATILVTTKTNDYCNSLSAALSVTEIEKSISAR", "assay": "flow cytometry, 293T-cBCMA cells"}},
  "data": [
    {"substance": "Conjugate 1: anti-BCMA antibody J6M0 conjugated to maleimido-caproyl monomethyl auristatin F (mc-MMAF), surrogate ADC for GSK2857916", "values": [
      {"measurement": "Bmax", "setting": "[1]", "result": 45, "unit": "MFI"},
      {"measurement": "Kd", "setting": "[1]", "result": 2.4, "unit": "nM"},
      {"measurement": "Bmax", "setting": "[2]", "result": 856, "unit": "MFI"},
      {"measurement": "cell killing EC50, ARP-1", "setting": "[3]", "result": 0.52, "unit": "nM"},
      {"measurement": "cell killing EC50, ARP-1, no competing reagent", "setting": "[3]", "result": 0.6, "unit": "nM"},
      {"measurement": "cell killing EC50, MM.1S", "setting": "[3]", "result": 0.68, "unit": "nM"},
      {"measurement": "cell killing EC50, NCI-H929", "setting": "[3]", "result": 0.29, "unit": "nM"},
      {"measurement": "cell killing EC50, NCI-H929, Experiment 1", "setting": "[3]", "result": 0.2, "unit": "nM"},
      {"measurement": "cell killing EC50, NCI-H929, Experiment 2", "setting": "[3]", "result": 0.2, "unit": "nM"},
      {"measurement": "cell killing EC50, NCI-H929, no competing reagent", "setting": "[3]", "result": 0.4, "unit": "nM"},
      {"measurement": "cell killing EC50, OPM2, Experiment 1", "setting": "[3]", "result": 0.8, "unit": "nM"},
      {"measurement": "cell killing EC50, OPM2, Experiment 2", "setting": "[3]", "result": 0.9, "unit": "nM"},
      {"measurement": "cell killing EC50, OPM2, no competing reagent", "setting": "[3]", "result": 2.3, "unit": "nM"},
      {"measurement": "cell killing EC50, OPM-2", "setting": "[3]", "result": 1.4, "unit": "nM"},
      {"measurement": "cell killing EC50, U266B1", "setting": "[3]", "result": 0.32, "unit": "nM"},
      {"measurement": "cell killing EC50, U266B1, Experiment 1", "setting": "[3]", "result": 0.2, "unit": "nM"},
      {"measurement": "cell killing EC50, U266B1, Experiment 2", "setting": "[3]", "result": 0.3, "unit": "nM"},
      {"measurement": "cell killing EC50, U266B1, no competing reagent", "setting": "[3]", "result": 0.4, "unit": "nM"},
      {"measurement": "cell killing Span, ARP-1", "setting": "[3]", "result": 95, "unit": "%"},
      {"measurement": "cell killing Span, ARP-1, no competing reagent", "setting": "[3]", "result": 97, "unit": "%"},
      {"measurement": "cell killing Span, MM.1S", "setting": "[3]", "result": 86, "unit": "%"},
      {"measurement": "cell killing Span, NCI-H929", "setting": "[3]", "result": 91, "unit": "%"},
      {"measurement": "cell killing Span, NCI-H929, Experiment 1", "setting": "[3]", "result": 85, "unit": "%"},
      {"measurement": "cell killing Span, NCI-H929, Experiment 2", "setting": "[3]", "result": 86, "unit": "%"},
      {"measurement": "cell killing Span, NCI-H929, no competing reagent", "setting": "[3]", "result": 86, "unit": "%"},
      {"measurement": "cell killing Span, OPM2, Experiment 1", "setting": "[3]", "result": 95, "unit": "%"},
      {"measurement": "cell killing Span, OPM2, Experiment 2", "setting": "[3]", "result": 94, "unit": "%"},
      {"measurement": "cell killing Span, OPM2, no competing reagent", "setting": "[3]", "result": 92, "unit": "%"},
      {"measurement": "cell killing Span, OPM-2", "setting": "[3]", "result": 93, "unit": "%"},
      {"measurement": "cell killing Span, RPMI-8226", "setting": "[3]", "result": 40, "unit": "%"},
      {"measurement": "cell killing Span, U266B1", "setting": "[3]", "result": 90, "unit": "%"},
      {"measurement": "cell killing Span, U266B1, Experiment 1", "setting": "[3]", "result": 85, "unit": "%"},
      {"measurement": "cell killing Span, U266B1, Experiment 2", "setting": "[3]", "result": 84, "unit": "%"},
      {"measurement": "cell killing Span, U266B1, no competing reagent", "setting": "[3]", "result": 90, "unit": "%"},
      {"measurement": "IC50", "setting": "[4]", "result": 7, "unit": "nM"},
      {"measurement": "Bmax", "setting": "[5]", "result": 981, "unit": "MFI"},
      {"measurement": "Kd", "setting": "[5]", "result": 8.6, "unit": "nM"}
    ]}
  ]
}
